From US20170081404A1

Assays:
[1] = target: Biotin-GCN4 peptide (yeast); assay: SPR (Biacore 3000, 25 C): Biotin-GCN4 peptide captured on immobilised streptavidin (CM5 chip), Fab-scFv injected as analyte, 1:1 binding model
[2] = target: Biotin-GCN4 peptide (yeast); assay: SPR, Biacore 3000, 25 C; Biotin-GCN4 peptide captured on immobilised streptavidin (CM5), Fab-scFv injected in three-fold dilutions from 30 nM, 1:1 binding model

B1: Fab A-scFv '52SR4' (protein, part only; not given: Fab A heavy and light chains, not shown: another chain or arm of the molecule; a dimerising Fc or GST; small tags and cut ends)
scFv: DAVVTQESALTSSPGETVTLTCRSSTGAVTTSNYASWVQEKPDHLFTGLIGGTNNRAPGVPARFSGSLIGDKAALTITGAQTEDEAIYFCVLWYSDHWVFGCGTKLTVLGGGGGSGGGGSGGGGSGGGGSDVQLQQSGPGLVAPSQSLSITCTVSGFLLTDYGVNWVRQSPGKCLEWLGVIWGDGITDYNSALKSRLSVTKDNSKSQVFLKMNSLQSGDSARYYCVTGLFDYWGQGTTLTVSSAAAHHHHHHEQKLISEEDL
koff [1]: 0.00027 s⁻¹
kon [1]: 510000 M⁻¹ s⁻¹
Kd [2]: 516 pM
